± gives the standard deviation of the averaged measurements.
System: ATP
Experiment: switch fluorescence ratio, 500 uM ATP over buffer (Cy3 cluster intensity, sum of 5 cycles each) (fold (ratio)); higher = stronger signal-on switching upon ATP binding; sequences stand for … in TCGTCGGCAGCGTCAGATGTGTATAAGAGACAGTTTTTTTTTTTTTTTTTTTTTTTTT…TC
Conditions: aptamer strand: ATP DNA aptamer (quencher-CACCTGGGGGAGTATTGCGGAGGAAGG + anchor), 100 nM annealed; ATP concentration: 500 uM
Summary of the method: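 Clusters carrying Cy3-labelled switching strands on a modified Illumina MiSeq flow-cell were annealed to 100 nM quencher-labelled ATP aptamer and imaged in selection buffer. They were imaged again after 15 min with 500 uM ATP at 22 °C, over five buffer/ATP cycles with NaOH stripping and re-annealing in between. For each cluster, the fluorescence ratio is the summed Cy3 intensity of the target cycles divided by that of the buffer cycles, averaged per switch-domain sequence. Clusters outside 100-1000 RFU were left out.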
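Also: ATP exposure 15 min at 22 °C before imaging.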

Sequence | switch fluorescence ratio
AATGGAATTG | 0.9965 ± 0.005
AATGGAGAAC | 1.01 ± 0.028
AATGGATGCG | 1 ± 0.029
AATGGATTGG | 0.997 ± 0.018
AATGGCGGGC | 1.01 ± 0.029
AATGGGCGCT | 0.97198 ± 0.00095
AATGGGGACA | 0.995 ± 0.051
AATGGGGACG | 0.985 ± 0.021
AATGGGGACT | 1 ± 0.012
AATGGGGGGC | 1 ± 0.041
AATGGGGTGT | 0.987 ± 0.021
AATGGGTGAA | 0.97511 ± 0.00091
AATGGGTGGG | 1 ± 0.062
AATGGGTGTG | 1.01 ± 0.023
AATGGTAGAA | 0.986 ± 0.048
AATGGTGATG | 0.9904 ± 0.0077
AATGGTTTTC | 0.9948 ± 0.0023
AATGTAAAAC | 1.06 ± 0.066
AATGTAATAA | 1.05 ± 0.084
AATGTAGGGG | 1.02 ± 0.045
AATGTAGTTG | 1.02 ± 0.027
AATGTGAGAC | 1.07 ± 0.073
AATGTGCAAA | 1.01 ± 0.022
AATGTGGGCC | 1.024 ± 0.0013
AATGTGGGGT | 0.995 ± 0.026

Sequence | switch fluorescence ratio
AATGTGGTCT | 0.994 ± 0.021
AATGTTAATG | 0.94 ± 0.019
AATGTTCGGT | 0.989 ± 0.011
AATGTTCTTT | 0.977 ± 0.062
AATGTTGGAG | 0.985 ± 0.028
AATGTTGTGC | 0.9381 ± 0.0049
AATGTTTGGG | 0.981 ± 0.021
AATGTTTGTC | 1.03 ± 0.1
AATGTTTTTG | 1.02 ± 0.046
AATTAAAGGG | 1.03 ± 0.066
AATTAAATA | 0.979 ± 0.037
AATTAACTTT | 0.985 ± 0.023
AATTAGGGAA | 1.01 ± 0.023
AATTATACAT | 1.04 ± 0.043
AATTATATCA | 1.01 ± 0.01
AATTATGATG | 0.9948 ± 0.0069
AATTATGGGC | 1.023 ± 0.0064
AATTATGTAG | 1 ± 0.014
AATTATGTTT | 0.995 ± 0.03
AATTCCGAGG | 1.14 ± 0.021
AATTCGGATG | 1.02 ± 0.034
AATTCGTGAA | 1.01 ± 0.013
AATTCTGGCT | 1.006 ± 0.0071
AATTGAAAAA | 1.05 ± 0.069
AATTGAAAAT | 0.967 ± 0.0073

Sequence | switch fluorescence ratio
AATTGATTAG | 1.03 ± 0.038
AATTGATTCT | 1.026 ± 0.0018
AATTGCTCGT | 1 ± 0.016
AATTGG | 0.992 ± 0.018
AATTGGAGTG | 0.998 ± 0.041
AATTGGCGGT | 1.03 ± 0.027
AATTGGGGTA | 0.989 ± 0.026
AATTGGGGTC | 0.967 ± 0.031
AATTGGGTTA | 0.976 ± 0.023
AATTGGTCCT | 0.986 ± 0.041
AATTGGTGCG | 0.985 ± 0.035
AATTGTATCA | 1 ± 0.054
AATTGTATCT | 1.01 ± 0.063
AATTGTGGGC | 0.978 ± 0.047
AATTGTTAGT | 0.994 ± 0.03
AATTGTTATT | 0.9919 ± 0.0034
AATTGTTGCG | 0.974 ± 0.015
AATTTAAGGC | 0.985 ± 0.078
AATTTACTCT | 1.07 ± 0.018
AATTTACTGG | 1.13 ± 0.084
AATTTAGCCA | 1.02 ± 0.018
AATTTAGGAA | 0.975 ± 0.037
AATTTATAAT | 1.01 ± 0.036
AATTTCAAGT | 1 ± 0.039
AATTTCATGT | 1.01 ± 0.012

Sequence | switch fluorescence ratio
AATTTGAGCC | 0.965 ± 0.039
AATTTGGCGT | 0.968 ± 0.011
AATTTGGCTG | 1.22 ± 0.29
AATTTGGGAG | 1.01 ± 0.025
AATTTGGGTC | 0.981 ± 0.016
AATTTGGGTG | 1.04 ± 0.049
AATTTGTCAT | 0.972 ± 0.045
AATTTGTTGG | 0.996 ± 0.017
AATTTGTTGT | 0.996 ± 0.025
AATTTTAAAT | 1.09 ± 0.21
AATTTTAACT | 1.022 ± 0.0064
AATTTTGATG | 0.971 ± 0.018
AATTTTTAAG | 0.997 ± 0.011
AATTTTTCAG | 0.985 ± 0.018
AATTTTTCGT | 1 ± 0.027
AATTTTTGTC | 1.01 ± 0.023
AATTTTTTTC | 0.989 ± 0.015
ACAAAAATAG | 0.993 ± 0.04
ACAAACCACC | 1.34 ± 0.057
ACAAACGGCA | 1.33 ± 0.024
ACAAAGGGAC | 1.06 ± 0.12
ACAAAGGGGG | 0.92 ± 0.087
ACAAAGGTCG | 1.01 ± 0.022
ACAAATATAT | 1.17 ± 0.081
ACAAATGGCA | 1.07 ± 0.037

Sequence | switch fluorescence ratio
ACAACCGCTT | 1.13 ± 0.017
ACAACGAAAG | 1.039 ± 0.0061
ACAACGAGGT | 1.015 ± 0.0093
ACAACTCAGG | 1.22 ± 0.022
ACAAGATACG | 1.13 ± 0.013
ACAAGGATTC | 0.995 ± 0.025
ACAAGGGAGA | 1.06 ± 0.012
ACAAGTGACG | 0.988 ± 0.026
ACAAGTGTTC | 1 ± 0.051
ACAAGTTGGA | 1.11 ± 0.061
ACAATATGGG | 1.01 ± 0.079
ACAATGGCAC | 1.06 ± 0.029
ACAATTGACT | 1.099 ± 0.0039
ACAATTGGAG | 0.9969 ± 0.0044
ACACAATAGG | 1.04 ± 0.025
ACACAGTAGT | 1.03 ± 0.011
ACACCGTCTA | 1.11 ± 0.023
ACACCTTTTT | 1.04 ± 0.032
ACACGCGCCT | 1.08 ± 0.011
ACACGGGAAG | 1.02 ± 0.011
ACACGGGATG | 1.06 ± 0.077
ACACGGGGTG | 1.018 ± 0.0018
ACACGTAACT | 1.359 ± 0.0099
ACACGTTGGC | 1.05 ± 0.06
ACACTAGGTG | 1.42 ± 0.023

Sequence | switch fluorescence ratio
ACACTGCTTA | 1.02 ± 0.044
ACACTTTACT | 1.32 ± 0.014
ACAGAAAGAC | 1.15 ± 0.27
ACAGAAGGGA | 1.03 ± 0.068
ACAGATAAAG | 0.97 ± 0.045
ACAGCAGTGT | 1.03 ± 0.035
ACAGCATGGA | 1.04 ± 0.048
ACAGCATTTT | 1.03 ± 0.0072
ACAGCCTGCC | 1.3 ± 0.07
ACAGCGGGTG | 1.087 ± 0.01
ACAGCTTCTA | 1.03 ± 0.021
ACAGCTTTTT | 1.01 ± 0.013
ACAGGGATCA | 0.981 ± 0.052
ACAGGGGGCC | 1.08 ± 0.12
ACAGGGGGGA | 1.05 ± 0.046
ACAGGGGGTA | 1.02 ± 0.024
ACAGGGTTGG | 1.02 ± 0.03
ACAGGGTTGT | 0.979 ± 0.013
ACAGTAAGAG | 1.03 ± 0.049
ACAGTAAGTT | 1.07 ± 0.016
ACAGTCGGGC | 1.001 ± 0.0073
ACAGTGTCTT | 1.01 ± 0.03
ACAGTTATTG | 1.016 ± 0.0077
ACAGTTCGGG | 0.9653 ± 0.0051
ACAGTTGGCC | 1.02 ± 0.021

Sequence | switch fluorescence ratio
ACAGTTGGCT | 1.0179 ± 0.00096
ACAGTTGTAT | 1.015 ± 0.01
ACATAATTGA | 1.03 ± 0.017
ACATACGAAC | 1.38 ± 0.098
ACATAGCTGG | 1.01 ± 0.029
ACATAGCTTT | 1.03 ± 0.036
ACATAGGAAC | 1.024 ± 0.004
ACATATCTTT | 1.025 ± 0.0012
ACATATGGGC | 0.974 ± 0.037
ACATATTTTG | 1.01 ± 0.033
ACATCAATTC | 1.1 ± 0.014
ACATCGGGCT | 1.02 ± 0.027
ACATCGTCAT | 1.01 ± 0.02
ACATCGTTCT | 0.977 ± 0.018
ACATCTGACA | 1.06 ± 0.019
ACATCTTTTA | 1.03 ± 0.038
ACATGAGCGT | 0.996 ± 0.016
ACATGAGGTG | 1.18 ± 0.064
ACATGAGTCT | 1.02 ± 0.02
ACATGGAGAG | 0.985 ± 0.052
ACATGGATAA | 1.012 ± 0.0044
ACATGGGCT | 1.003 ± 0.0088
ACATGGGGGA | 1.02 ± 0.0082
ACATGGGTT | 1.04 ± 0.05
ACATGTCTGA | 0.9991 ± 0.0024

Sequence | switch fluorescence ratio
ACATGTGGAT | 0.996 ± 0.05
ACATGTTATT | 1.01 ± 0.035
ACATTACACA | 1.4 ± 0.25
ACATTAGTGG | 1.01 ± 0.01
ACATTCTATT | 1.01 ± 0.021
ACATTTTGGT | 0.995 ± 0.03
ACCAATTTTG | 1.01 ± 0.024
ACCACAATGT | 1.08 ± 0.055
ACCACCGTTG | 1.113 ± 0.0039
ACCACGGGGT | 1.02 ± 0.038
ACCAGATGCG | 1.01 ± 0.03
ACCAGCCTGG | 1.01 ± 0.025
ACCAGGGTCA | 1.05 ± 0.034
ACCAGTCTGG | 1.01 ± 0.017
ACCAGTGTCA | 1.02 ± 0.021
ACCATGGCTT | 0.976 ± 0.013
ACCATGGGAA | 1.04 ± 0.022
ACCATGTTTG | 1.012 ± 0.0072
ACCCAGGGCG | 1.44 ± 0.13
ACCCATCCAT | 1.02 ± 0.017
ACCCGCTTTT | 1.38 ± 0.31
ACCCGGCTCC | 1.23 ± 0.045
ACCCGTTGTG | 1.05 ± 0.03
ACCCTCGCAG | 1.748 ± 0.0058
ACCCTGGGGT | 2.14 ± 1.6

Reference: the supplement of paper PMC10126150
